Measured values as given in article PMC6555819, “Comprehensive study of nuclear receptor DNA binding provides a revised framework for understanding receptor specificity”.

Legend:
[1] = molecular target: RXRa (Homo sapiens, UniProt P19793); assay: no ligand; PBM; 180 nM; PBS pH 7.4, 2% milk, 0.02% Triton X-100, 1 mM DTT, BSA, 0.4 mg/ml salmon testes DNA; settings: tags: His cleaved; chain copies: 2; label: surface-attached array probe
[2] = molecular target: PPARg:RXRa (Homo sapiens, UniProt P37231;P19793 full;full); assay: no ligand; PBM; 180 nM : 90 nM RXRa; PBS pH 7.4, 2% milk, 0.02% Triton X-100, 1 mM DTT, BSA, 0.4 mg/ml salmon testes DNA; settings: tags: His kept;His cleaved; copies: 1;1; label: surface-attached array probe
Sequence of PPARg:RXRa (P37231 29-505, chain 1 of 2): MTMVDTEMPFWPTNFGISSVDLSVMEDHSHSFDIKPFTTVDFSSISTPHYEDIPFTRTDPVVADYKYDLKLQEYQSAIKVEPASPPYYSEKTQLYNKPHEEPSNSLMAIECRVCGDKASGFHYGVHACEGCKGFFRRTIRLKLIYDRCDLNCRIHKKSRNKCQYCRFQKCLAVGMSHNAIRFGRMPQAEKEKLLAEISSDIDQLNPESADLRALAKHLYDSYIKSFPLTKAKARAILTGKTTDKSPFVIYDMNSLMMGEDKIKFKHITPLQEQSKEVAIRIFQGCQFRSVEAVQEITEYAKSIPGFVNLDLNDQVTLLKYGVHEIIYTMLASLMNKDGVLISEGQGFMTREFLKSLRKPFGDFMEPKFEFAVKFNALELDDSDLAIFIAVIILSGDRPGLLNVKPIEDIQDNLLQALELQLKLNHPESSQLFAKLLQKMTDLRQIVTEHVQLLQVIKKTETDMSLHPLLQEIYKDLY
Sequence of PPARg:RXRa (P19793 whole entry, chain 2 of 2): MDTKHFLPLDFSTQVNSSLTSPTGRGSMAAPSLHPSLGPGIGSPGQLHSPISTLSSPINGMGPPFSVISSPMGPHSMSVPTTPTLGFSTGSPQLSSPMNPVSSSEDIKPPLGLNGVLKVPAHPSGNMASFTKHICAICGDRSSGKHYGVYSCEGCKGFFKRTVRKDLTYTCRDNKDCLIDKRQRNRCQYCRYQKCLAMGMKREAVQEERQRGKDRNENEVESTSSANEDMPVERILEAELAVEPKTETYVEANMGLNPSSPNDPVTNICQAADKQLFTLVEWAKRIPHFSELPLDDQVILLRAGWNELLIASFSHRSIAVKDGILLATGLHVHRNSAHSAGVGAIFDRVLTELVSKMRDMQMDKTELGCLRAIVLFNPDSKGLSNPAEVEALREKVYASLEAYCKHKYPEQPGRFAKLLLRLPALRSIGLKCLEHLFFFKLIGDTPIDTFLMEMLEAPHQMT

[3] = molecular target: RARb:RXRa (Homo sapiens, UniProt P10826;P19793 full;full); assay: no ligand; PBM; 270 nM : 90 nM RXRa; PBS pH 7.4, 2% milk, 0.02% Triton X-100, 1 mM DTT, BSA, 0.4 mg/ml salmon testes DNA; settings: tags: His kept;His cleaved; copies: 1;1; label: surface-attached array probe
Summary of the method: (§1)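 On custom Agilent 4×180K arrays, double-stranded probes with 34-nt variable regions carried direct-repeat seeds, single-nucleotide variants, half-site ablations or random human genomic background. Ligand-free nuclear receptor dimers were applied for 1 h, and binding was read with antibodies against each partner (one per run). Binding z-scores come from regression-normalized fluorescence, with the random background probes as reference.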

[4] = molecular target: VDR:RXRa (Homo sapiens, UniProt P11473;P19793 full;full); assay: as above; settings: tags: His kept;His cleaved; copies: 1;1; label: surface-attached array probe
Summary of the method: as §1

[5] = molecular target: LXRa:RXRa (Homo sapiens, UniProt Q13133;P19793 full;full); assay: as above; settings: tags: His kept;His cleaved; copies: 1;1; label: surface-attached array probe
Summary of the method: as §1

[6] = molecular target: PPARa:RXRa (Homo sapiens, UniProt Q07869;P19793 full;full); assay: as above; settings: tags: GST kept;His cleaved; copies: 1;1; label: surface-attached array probe
Summary of the method: as §1

[7] = molecular target: LXRb:RXRa (Homo sapiens, UniProt P55055;P19793 full;full); assay: as above; settings: tags: His kept;His cleaved; copies: 1;1; label: surface-attached array probe
Summary of the method: as §1

[8] = molecular target: PXR:RXRa (Homo sapiens, UniProt O75469;P19793 full;full); assay: as above; settings: tags: His kept;His cleaved; copies: 1;1; label: surface-attached array probe
Sequence of PXR:RXRa (O75469 whole entry, chain 1 of 2): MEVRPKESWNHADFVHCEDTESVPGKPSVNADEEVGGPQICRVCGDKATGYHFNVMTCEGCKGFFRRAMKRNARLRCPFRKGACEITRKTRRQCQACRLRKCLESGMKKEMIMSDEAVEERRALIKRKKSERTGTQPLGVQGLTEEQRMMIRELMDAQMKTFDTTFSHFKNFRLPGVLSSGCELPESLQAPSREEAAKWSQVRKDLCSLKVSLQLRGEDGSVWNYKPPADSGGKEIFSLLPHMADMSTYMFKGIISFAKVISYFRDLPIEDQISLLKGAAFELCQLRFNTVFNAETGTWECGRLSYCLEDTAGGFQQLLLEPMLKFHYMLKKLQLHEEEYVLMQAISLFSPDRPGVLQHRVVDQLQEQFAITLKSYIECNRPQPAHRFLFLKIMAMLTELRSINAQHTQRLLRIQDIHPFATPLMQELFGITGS
Sequence of PXR:RXRa (P19793 whole entry, chain 2 of 2): as the sequence (P19793 whole entry, chain 2 of 2) above
Summary of the method: as §1

[9] = molecular target: RARa:RXRa (Homo sapiens, UniProt P10276;P19793 full;full); assay: as above; settings: tags: His kept;His cleaved; copies: 1;1; label: surface-attached array probe
Sequence of RARa:RXRa (P10276 whole entry, chain 1 of 2): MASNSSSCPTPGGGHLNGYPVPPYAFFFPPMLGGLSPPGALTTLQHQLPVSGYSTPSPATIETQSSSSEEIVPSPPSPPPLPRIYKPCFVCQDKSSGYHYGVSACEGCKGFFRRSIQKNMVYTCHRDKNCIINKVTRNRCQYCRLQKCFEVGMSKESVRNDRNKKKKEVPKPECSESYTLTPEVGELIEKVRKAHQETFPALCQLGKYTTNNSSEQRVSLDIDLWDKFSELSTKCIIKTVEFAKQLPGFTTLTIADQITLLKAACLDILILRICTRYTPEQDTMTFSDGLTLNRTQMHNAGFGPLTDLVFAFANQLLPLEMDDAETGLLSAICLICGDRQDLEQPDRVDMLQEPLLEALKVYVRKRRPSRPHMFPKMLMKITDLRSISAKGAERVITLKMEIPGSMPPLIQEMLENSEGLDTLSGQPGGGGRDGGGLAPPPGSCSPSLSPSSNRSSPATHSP
Sequence of RARa:RXRa (P19793 whole entry, chain 2 of 2): as the sequence (P19793 whole entry, chain 2 of 2) above
Summary of the method: as §1

[10] = molecular target: RARg:RXRa (Homo sapiens, UniProt P13631;P19793 full;full); assay: as above; settings: tags: His kept;His cleaved; copies: 1;1; label: surface-attached array probe
Summary of the method: as §1

[11] = molecular target: FXR:RXRa (Homo sapiens, UniProt Q96RI1;P19793 full;full); assay: as above; settings: tags: His kept;His cleaved; copies: 1;1; label: surface-attached array probe
Sequence of FXR:RXRa (Q96RI1 whole entry, chain 1 of 2): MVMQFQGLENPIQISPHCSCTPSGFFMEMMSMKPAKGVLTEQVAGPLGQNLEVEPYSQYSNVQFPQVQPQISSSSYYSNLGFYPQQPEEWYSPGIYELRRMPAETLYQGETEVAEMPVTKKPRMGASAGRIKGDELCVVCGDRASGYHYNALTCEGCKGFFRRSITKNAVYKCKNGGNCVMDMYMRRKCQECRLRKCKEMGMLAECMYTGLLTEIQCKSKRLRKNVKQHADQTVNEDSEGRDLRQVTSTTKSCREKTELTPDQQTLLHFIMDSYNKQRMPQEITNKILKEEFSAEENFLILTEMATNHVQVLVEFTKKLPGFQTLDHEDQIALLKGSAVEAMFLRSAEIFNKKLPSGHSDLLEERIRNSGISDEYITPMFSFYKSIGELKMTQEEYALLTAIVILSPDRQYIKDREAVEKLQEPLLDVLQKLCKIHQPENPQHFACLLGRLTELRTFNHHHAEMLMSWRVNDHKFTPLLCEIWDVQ
Sequence of FXR:RXRa (P19793 whole entry, chain 2 of 2): as the sequence (P19793 whole entry, chain 2 of 2) above
Summary of the method: as §1

Sequence of RXRa (P19793 whole entry): as the sequence (P19793 whole entry, chain 2 of 2) above

Row | Binder | binding signal [1] | binding signal [2] | binding signal [3] | binding signal [4] | binding signal [5] | binding signal [6] | binding signal [7] | binding signal [8] | binding signal [9] | binding signal [10] | binding signal [11]
1 | NRC3_wobSeed26_DR1_T9G_o1 (dsDNA) DNA 1: GCTCTAGTGGGTCAAAGGTCACACACTCGAAATGCGGCGATTGACAGCGTAGAATGAAGG DNA 2: CCTTCATTCTACGCTGTCAATCGCCGCATTTCGAGTGTGTGACCTTTGACCCACTAGAGC | 10.2 PBM z-score against 500 random probes | 13.8 PBM z-score against 500 random probes | 5.62 PBM z-score against 500 random probes | 7 PBM z-score against 500 random probes | 6.72 PBM z-score against 500 random probes | 7.42 PBM z-score against 500 random probes | 6.79 PBM z-score against 500 random probes | 6.94 PBM z-score against 500 random probes | 8.89 PBM z-score against 500 random probes | 8.6 PBM z-score against 500 random probes | 
2 | NRC3_wobSeed46_DR1_G13C_o1 (dsDNA) DNA 1: GCTTACCAAGGTCAAAGGTCGTTGATGCACGCCTTGGCGATTGACAGCGTAGAATGAAGG DNA 2: CCTTCATTCTACGCTGTCAATCGCCAAGGCGTGCATCAACGACCTTTGACCTTGGTAAGC | 9.65 PBM z-score against 500 random probes | 10.5 PBM z-score against 500 random probes | 5.44 PBM z-score against 500 random probes |  | 7.04 PBM z-score against 500 random probes | 6.85 PBM z-score against 500 random probes | 6.04 PBM z-score against 500 random probes | 7 PBM z-score against 500 random probes | 8.61 PBM z-score against 500 random probes | 7.78 PBM z-score against 500 random probes | 8.17 PBM z-score against 500 random probes
3 | NRC3_wobSeed34_DR1_G14A_o1 (dsDNA) DNA 1: GCATCGAAAGGTCAAAGGTGAGTATACCCACCCGAAGCGATTGACAGCGTAGAATGAAGG DNA 2: CCTTCATTCTACGCTGTCAATCGCTTCGGGTGGGTATACTCACCTTTGACCTTTCGATGC | 10.1 PBM z-score against 500 random probes | 10 PBM z-score against 500 random probes | 6.19 PBM z-score against 500 random probes |  | 7.65 PBM z-score against 500 random probes | 7.53 PBM z-score against 500 random probes | 6.85 PBM z-score against 500 random probes | 6.57 PBM z-score against 500 random probes | 8.66 PBM z-score against 500 random probes | 8.43 PBM z-score against 500 random probes | 8.87 PBM z-score against 500 random probes
4 | NRC3_wobSeed38_DR1_T16A_o1 (dsDNA) DNA 1: GCCCTGCTAGGTCAAAGGTCAGCTAAAGCAGCTCGCGCGATTGACAGCGTAGAATGAAGG DNA 2: CCTTCATTCTACGCTGTCAATCGCGCGAGCTGCTTTAGCTGACCTTTGACCTAGCAGGGC | 10 PBM z-score against 500 random probes | 12.7 PBM z-score against 500 random probes | 5.62 PBM z-score against 500 random probes |  |  | 6.82 PBM z-score against 500 random probes | 5.81 PBM z-score against 500 random probes | 6.86 PBM z-score against 500 random probes | 8.86 PBM z-score against 500 random probes | 8.54 PBM z-score against 500 random probes | 
5 | NRC3_wobSeed41_DR1_T13C_o1 (dsDNA) DNA 1: GCATATGTAGGTCAAGGGTCATTCAGGTTGGTTCGCGCGATTGACAGCGTAGAATGAAGG DNA 2: CCTTCATTCTACGCTGTCAATCGCGCGAACCAACCTGAATGACCCTTGACCTACATATGC | 9.04 PBM z-score against 500 random probes | 13.1 PBM z-score against 500 random probes |  | 6.57 PBM z-score against 500 random probes |  | 7.55 PBM z-score against 500 random probes | 6.03 PBM z-score against 500 random probes | 6.6 PBM z-score against 500 random probes | 7.96 PBM z-score against 500 random probes |  | 
6 | NRC3_wobSeed41_DR1_G16A_o1 (dsDNA) DNA 1: GCATATGTAGGTTAAAGGTCATTCAGGTTGGTTCGCGCGATTGACAGCGTAGAATGAAGG DNA 2: CCTTCATTCTACGCTGTCAATCGCGCGAACCAACCTGAATGACCTTTAACCTACATATGC | 9.21 PBM z-score against 500 random probes | 13.4 PBM z-score against 500 random probes |  | 6.82 PBM z-score against 500 random probes |  | 7.09 PBM z-score against 500 random probes | 5.91 PBM z-score against 500 random probes | 6.71 PBM z-score against 500 random probes | 8.42 PBM z-score against 500 random probes |  | 
7 | NRC3_wobSeed42_DR1_A8G_o1 (dsDNA) DNA 1: GCTATACGGGGTCAAAGGCCAGAGTACGAATGTCGAGCGATTGACAGCGTAGAATGAAGG DNA 2: CCTTCATTCTACGCTGTCAATCGCTCGACATTCGTACTCTGGCCTTTGACCCCGTATAGC | 9.41 PBM z-score against 500 random probes | 10.7 PBM z-score against 500 random probes |  | 6.76 PBM z-score against 500 random probes | 7.28 PBM z-score against 500 random probes | 7.07 PBM z-score against 500 random probes | 7.1 PBM z-score against 500 random probes | 6.54 PBM z-score against 500 random probes | 7.79 PBM z-score against 500 random probes | 7.59 PBM z-score against 500 random probes | 8.52 PBM z-score against 500 random probes
8 | NRC3_wobSeed89_DR3_T13C_o1 (dsDNA) DNA 1: GCCTATGTAGGTCAAGGGGGTCATTCAGTTTGAAAGGCGATTGACAGCGTAGAATGAAGG DNA 2: CCTTCATTCTACGCTGTCAATCGCCTTTCAAACTGAATGACCCCCTTGACCTACATAGGC |  | 11.1 PBM z-score against 500 random probes |  | 8.32 PBM z-score against 500 random probes |  | 6.84 PBM z-score against 500 random probes | 6.92 PBM z-score against 500 random probes | 6.79 PBM z-score against 500 random probes | 7.29 PBM z-score against 500 random probes |  | 
9 | NRC3_wobSeed49_DR2_C27T_o1 (dsDNA) DNA 1: GCCAAACTAGGTCAAGAGGTCAAAGTTCGCTTCCCGGCGATTGACAGCGTAGAATGAAGG DNA 2: CCTTCATTCTACGCTGTCAATCGCCGGGAAGCGAACTTTGACCTCTTGACCTAGTTTGGC |  | 11 PBM z-score against 500 random probes |  | 6.55 PBM z-score against 500 random probes |  | 6.92 PBM z-score against 500 random probes |  | 6.88 PBM z-score against 500 random probes | 8.47 PBM z-score against 500 random probes |  | 7.82 PBM z-score against 500 random probes
10 | NRC3_wobSeed121_DR5_G18A_o1 (dsDNA) DNA 1: GCCAAACTAGGTCACCGAAAGGTCAAAGTCCGCATGGCGATTGACAGCGTAGAATGAAGG DNA 2: CCTTCATTCTACGCTGTCAATCGCCATGCGGACTTTGACCTTTCGGTGACCTAGTTTGGC |  | 10.5 PBM z-score against 500 random probes | 5.67 PBM z-score against 500 random probes |  | 6.91 PBM z-score against 500 random probes | 6.77 PBM z-score against 500 random probes | 6.47 PBM z-score against 500 random probes | 6.93 PBM z-score against 500 random probes | 8.55 PBM z-score against 500 random probes |  | 
11 | NRC3_wobSeed45_DR1_A20T_o1 (dsDNA) DNA 1: GCTGTCAAAGTTCAAAGGTTACGTAAGTATCCACACGCGATTGACAGCGTAGAATGAAGG DNA 2: CCTTCATTCTACGCTGTCAATCGCGTGTGGATACTTACGTAACCTTTGAACTTTGACAGC | 9.74 PBM z-score against 500 random probes | 9.98 PBM z-score against 500 random probes | 5.55 PBM z-score against 500 random probes |  | 7.17 PBM z-score against 500 random probes | 6.95 PBM z-score against 500 random probes | 5.93 PBM z-score against 500 random probes | 6.87 PBM z-score against 500 random probes | 8.47 PBM z-score against 500 random probes | 7.83 PBM z-score against 500 random probes | 
12 | NRC3_wobSeed45_DR1_T11G_o1 (dsDNA) DNA 1: GCTGTCAAAGGTCAAAGGTAACGTAAGTATCCACACGCGATTGACAGCGTAGAATGAAGG DNA 2: CCTTCATTCTACGCTGTCAATCGCGTGTGGATACTTACGTTACCTTTGACCTTTGACAGC | 10.1 PBM z-score against 500 random probes | 12.1 PBM z-score against 500 random probes | 6.49 PBM z-score against 500 random probes |  | 7.81 PBM z-score against 500 random probes | 7.31 PBM z-score against 500 random probes | 6.94 PBM z-score against 500 random probes | 6.66 PBM z-score against 500 random probes | 8.2 PBM z-score against 500 random probes | 8.53 PBM z-score against 500 random probes | 9.11 PBM z-score against 500 random probes
